# Measurements reported in patent publication US9403884B2, “Peptides useful as cell-penetrating peptides” (Evonik Roehm GmbH, priority 2005, dated 2016).
# fluorescein = fluorescein label (fluorescent marker on the peptide)
# Legend:
# HeLa cells [1] = experiment: Cytotoxicity of hLF-peptide, cell viability by MTT test; type: cell-based, human; conditions: FIG. 6
# Procedure: However, for live cell microscopy of peptide uptake mostly rather short incubation times of less than one hour were employed. It was therefore also tested whether for longer incubation times and higher concentrations, the peptide affected cell viability. HeLa cells were incubated with the hLF-peptide at concentrations ranging from 1.25 μM to up to 160 μM for either 6 or 0.5 hours. Afterwards cell viability was determined using an MTT test. The result thereof are depicted in FIG. 6.
# HeLa cells [2] = experiment: Cytotoxic effects observed during the uptake experiments (flow cytometry, live cell microscopy); type: cell-based, human; conditions: concentration range of up to 40 μM, mostly incubation times of less than one hour
substance,measurement,setting,value
Fluo-KCFQWQRNMRKVRGPPVSCIKR-CONH2 (fluorescein-KCFQWQRNMRKVRGPPVSCIKR-NH2; cysteine pairing not given here; listed as Homo sapiens) [hLF-peptide],cell viability (MTT),"HeLa cells [1]; after 6 hours, peptide concentrations higher than 5 μM",slightly reduced
same,cell viability (MTT),HeLa cells [1]; concentrations higher than 40 μM (tested up to 160 μM),all cells were killed
same,cytotoxicity (MTT cell viability),"HeLa cells [1]; incubated 30 minutes, concentrations up to 40 μM",no cytotoxicity was observed
same,cytotoxic effects in the uptake experiments,HeLa cells [2],no cytotoxic effects could be observed
